Measurements: paper PMC8969154, “Deglutarylation of glutaryl-CoA dehydrogenase by deacylating enzyme SIRT5 promotes lysine oxidation in mice” (The Journal of Biological Chemistry, 2022)

Key:
[1] = target: the molecule itself; experiment: SEC; Superdex 200 Increase 10/300 GL, 25 mM Hepes pH 7.8, 30 mM NaCl, 0.75 ml/min; column calibrated with standard proteins; comparison of unmodified and modified GCDH told as data not shown
[2] = target: the molecule itself; experiment: native gel or EMSA; BN-PAGE (NativePAGE 4-16% Bis-Tris) of liver mitochondria solubilised in 2% n-dodecyl-β-D-maltoside, 0.5% G-250; immunoblot for GCDH; SIRT5WT and SIRT5KO mice, fed or 24 h fasted; GCDHKO mitochondria as control for the band

Row | Protein | stoichiometry N [1] | stoichiometry N [2]
1 | human recombinant GCDH protein (hGCDH-6XHIS), unmodified (enzyme, UniProt Q92947 45-438, looked up, hGCDH-6XHIS 'modified from UniProtKB - Q92947'; printed residue numbers count on the full-length human GCDH protein; also called recombinant human GCDH; unmodified GCDH) RPEFDWQDPLVLEEQLTTDEILIRDTFRTYCQERLMPRILLANRNEVFHREIISEMGELGVLGPTIKGYGCAGVSSVAYGLLARELERVDSGYRSAMSVQSSLVMHPIYAYGSEEQRQKYLPQLAKGELLGCFGLTEPNSGSDPSSMETRAHYNSSNKSYTLNGTKTWITNSPMADLFVVWARCEDGCIRGFLLEKGMRGLSAPRIQGKFSLRASATGMIIMDGVEVPEENVLPGASSLGGPFGCLNNARYGIAWGVLGASEFCLHTARQYALDRMQFGVPLARNQLIQKKLADMLTEITLGLHACLQLGRLKDQDKAAPEMVSLLKRNNCGKALDIARQARDMLGGNGISDEYHVIRHAMNLEAVNTYEGTHDIHALILGRAITGIQAFTASK | 4 | –
2 | chemically glutarylated human recombinant GCDH (glutaryl-GCDH) (enzyme, UniProt Q92947 45-438, looked up, glutaryl-lysine by chemical glutarylation: 10 sites found; heavily glutarylated K163, K170, K202, K240, K253, K357, K371, K377 (numbers of full-length human GCDH), as the chain of m2, chemically glutarylated; printed residue numbers count on the full-length human GCDH protein; also called glutarylated GCDH; modified GCDH) RPEFDWQDPLVLEEQLTTDEILIRDTFRTYCQERLMPRILLANRNEVFHREIISEMGELGVLGPTIKGYGCAGVSSVAYGLLARELERVDSGYRSAMSVQSSLVMHPIYAYGSEEQRQKYLPQLAKGELLGCFGLTEPNSGSDPSSMETRAHYNSSNKSYTLNGTKTWITNSPMADLFVVWARCEDGCIRGFLLEKGMRGLSAPRIQGKFSLRASATGMIIMDGVEVPEENVLPGASSLGGPFGCLNNARYGIAWGVLGASEFCLHTARQYALDRMQFGVPLARNQLIQKKLADMLTEITLGLHACLQLGRLKDQDKAAPEMVSLLKRNNCGKALDIARQARDMLGGNGISDEYHVIRHAMNLEAVNTYEGTHDIHALILGRAITGIQAFTASK | 4 | –
3 | chemically succinylated human recombinant GCDH (succinyl-GCDH) (enzyme, UniProt Q92947 45-438, looked up, succinyl-lysine by chemical succinylation: 11 sites found (shown in Fig. S3D, not given), as the chain of m2, chemically succinylated; printed residue numbers count on the full-length human GCDH protein; also called succinylated GCDH; modified GCDH) RPEFDWQDPLVLEEQLTTDEILIRDTFRTYCQERLMPRILLANRNEVFHREIISEMGELGVLGPTIKGYGCAGVSSVAYGLLARELERVDSGYRSAMSVQSSLVMHPIYAYGSEEQRQKYLPQLAKGELLGCFGLTEPNSGSDPSSMETRAHYNSSNKSYTLNGTKTWITNSPMADLFVVWARCEDGCIRGFLLEKGMRGLSAPRIQGKFSLRASATGMIIMDGVEVPEENVLPGASSLGGPFGCLNNARYGIAWGVLGASEFCLHTARQYALDRMQFGVPLARNQLIQKKLADMLTEITLGLHACLQLGRLKDQDKAAPEMVSLLKRNNCGKALDIARQARDMLGGNGISDEYHVIRHAMNLEAVNTYEGTHDIHALILGRAITGIQAFTASK | 4 | –
4 | glutaryl-CoA dehydrogenase (GCDH), endogenous, mouse liver mitochondria (enzyme, mouse (endogenous in liver mitochondria), UniProt Q60759 45-438, looked up, glutaryl-CoA dehydrogenase, mouse, endogenous in liver mitochondria of SIRT5WT and SIRT5KO mice (GCDHKO mitochondria used to identify the band); Glutarylation state differs with genotype and feeding state (higher in starved SIRT5KO liver); also called GCDH tetramer; source: endogenous, mouse liver mitochondria solubilised in 2% n-dodecyl-β-D-maltoside) RPVFDWKDPLILEEQLTADEKLIRDTFRNYCQERLMSRILLANRNEVFHRDIVYEMGELGVLGPTIKGYGCAGVSSVAYGLLTRELERVDSGYRSMMSVQSSLVMHPIYTYGSEEQRQKYLPGLAKGELLGCFGLTEPNHGSDPGGMETRARHNPSNQSYTLSGTKTWITNSPVADLFIVWARCEDNCIRGFILEKGMRGLSAPRIEGKFSLRASATGMIIMDSVEVPEENVLPNVSSLAGPFGCLNTARYGITWGVLGAAEFCLHTARQYALDRIQFGVPLARNQLVQKKLADMLTEITLGLHACLQLGRLKDQDKATPEMVSMLKRNNCGKALDIARQARDILGGNGISDEYHVIRHAMNLEAVNTYEGTHDIHALILGRAITGIQAFTVGK | – | 4
